Test results published in the DeepSol protein solubility set.

Assay: soluble on expression in E. coli; label from the status in PepcDB or PDB records

Sequence | soluble on expression in E. coli
GGTKTAAEAAAPAVHPVSGLQIVPVTVTGTSGRHVFRSELARTSAEQAKGLMFRTELGDEEGMIFLRNPPDMATFWMRNTVIPLDIIFVGLDRRVMNIAANAVPYDETPLPAAGPTLAVLEINGGLAARLGIKPGDKVEW | soluble
GHHHHHHHHHHGLVPRGSHMYFQKARLIHAELPLLAPFKTSYGELKSKDFYIIELINEEGIHGYGELEAFPLPDYTEETLSSAILIIKEQLLPLLAQRKIRKPEEIQELFSWIQGNEMAKAAVELAVWDAFAKMEKRSLAKMIGATKESIKVGVSIGLQQNVETLLQLVNQYVDQGYERVKLKIAPNKDIQFVEAVRKSFPKLSLMADANSAYNREDFLLLKELDQYDLEMIEQPFGTKDFVDHAWLQKQLKTRICLDENIRSVKDVEQAHSIGSCRAINLKLARVGGMSSALKIAEYCALNEILVWCGGMLEAGVGRAHNIALAARNEFVFPGDISASNRFFAEDIVTPAFELNQGRLKVPTNEGIGVTLDLKVLKKYTKSTEEILLNKGWS | soluble
GHMNAYLSDQPVRLSPLRDEQGNQPRFGLLLEPGRPGMHVGELPAQWLKGLARSHHLLLLRGFAAFADAESLTRYCHDFGEVMLWPFGAVLELVEQEGAEDHIFANNYVPLHWDGMYLETVPEFQVFHCVDAPGDSDGGRTTFSSTPAALQLADSSELELWRRASGRYQRSAAHYSSRSAAPIVERHPRREFPILRFCEPPVEGDASFINPSEFHYDGIAPEQRGELLASLRRCLYHPQAHYAHRWRSDDLVIADNLTLLHGREAFAHRAPRHLRRVHIHAEPALRNPHLQRD | soluble
GHMNVAKREFIRGMMAHYRASLPPPEHSVVIHELQKRVLDIGMLAVNKAHVELFGSHVSGFCTPHSDADISLTYRNFSPWLQGMERVDEQNNKRMTRFGKEASAMGMEDVRYIRARIPVVQFTDGVTGIHCDVSIGNIGGVENSKILCAIRQVFPDFYGAYIHLVKAWGKAREVIAPERSTFNSFTVTTMALMVLQELGLLPVFSKPTGEFGELTVADAEMLLQEFKLPPIYDSLHDDDEKLGEAVFFCLQRFAEYYAKYDFSAGTVSLIHPRRHRTVYERVVRRHLELLGSRKRLEWEKHIAEHKEDGPLDENDFSASMQNETTQRPSNSPYVVEDFVNYVNCGRRVQASRVRHIQQEFNRLREMLIDKESELKFDEVFRESDTVP | soluble
GHMTKLFSKVKESIEGIKMPSTLTINGKAPIVAYAELIAARIVNALAPNSIAIKLVDDKKAPAAKLDDATEDVFNKITSKFAAIFDNGDKEQVAKWVNLAQKELVIKNFAKLSQSLETLDSQLNLRTFILGGLKYSAADVACWGALRSNGMCGSIIKNKVDVNVSRWYTLLEMDPIFGEAHDFLSKSLLELKKSANVGKKKETHKANFE | soluble
GHSMHHHHHHLGNKLSISDLKDIKNKKVLVRVDFNVPIENGIIKDTNRITATLPTINHLKKEGASKIILISHCGRPDGLRNEKYTLKPVAETLKGLLGEEVLFLNDCVGKEVEDKINAAKENSVILLENLRFHIEEEGKGVDANGNKVKANKEDVEKFQNDLTKLADVFINDAFGTAHRAHSSMVGVKLNVKASGFLMKKELEYFSKALENPQRPLLAILGGAKVSDKIQLIKNLLDKVDRMIIGGGMAYTFKKVLNNMKIGTSLFDEAGSKIVGEIMEKAKAKNVQIFLPVDFKIADNFDNNANTKFVTDEEGIPDNWMGLDAGPKSIENYKDVILTSKTVIWNGPQGVFEMPNFAKGSIECLNLVVEVTKKGAITIVGGGDTASLVEQQNKKNEISHVSTGGGASLELLEGKELPGVLALSNK | soluble
GIDVIGKKMTLCQLYAKQNAVRPNVKANTKSGRKYLMEILKNDRLGARSIDSIKPSDAKEWAIRMSENGFAYSTINNYKRSLRASFYIAIQDDYVRKNPFDFQLNTVIDDDTIPKTVLTSEQEARLLDFAKSDTVYHKNYDEILILLKTGLRISELCGLTVSDLDFENHLISVDHQLLRNTELGYYIETPKTKSSERQIPMEATCQALKRTLAKRDDRKCVEIDGYSHFLFLNRKGYPKTSGDFDRILRNLIKKYNKYHEEKLPHITPHTLRHTFCTNCANAGMNPKALQYIMGHANITMTLNYYAHATYKFGYG | not soluble
GIHMGKIKRRAITEHEKRALRHYFFQLQNRSGQQDLIEWFREKFGKDISQPSVSQILSSKYSYLDNTVEKPWDVKRNRPPKYPLLEAALFEWQVQQGDDATLSGETIKRAAAILWHKIPEYQDQPVPNFSNGWLEGFRKRHILH | soluble
GKITFFEDRSFQGRCYECSSDCPNLQTYFSRCNSVRVDSGCWMLYERPNYQGHQYFLRRGEYPDYQQWMGFSDSIRSCRLIPHAGSHRMRLYEKEDHKGVMMELSEDCSCIQDRFHLSEVRSLQVLEGCWVLYEMPNYRGRQYLLRPQEYRRFQDWGSVDAKAGSLRRVVDLY | soluble
GKVNIIVPQYVRCPDICHYETLIMKSLMIKLFQENSLDDVVFVTVEVDPWRGSLEEADMYIKESTASLGFTPPWIWVGGNMEPLETLYKQLGLSVQLDSSTGLIVHTAGFYIVDRNGILLYYVKVEDEGWKNPGKVADVLEYVVNDALSK | not soluble
GLPARSSSISNTNRTGENPMITPIISSNLGLKHRVTLRKATLASLMQSLSGESSNRVMWNDRYDTLLIARDPREIKNAIEKSVTDFGGLENYKELTGGADPFALMTPVCGLSANNIFKLMTEKDVPIDPTSIEYLENTSFAEHVNTLDSHKNYVVIVNDGRLGHKFLIDLPALTQGPRTAYIIQSDLGGGALPAVRVEDWISRRGSDPVSLDELNQLLSKDFSKMPDDVQTRLLASILQIDKDPHKVDIKKLHLDGKLRFASHEYDFRQFQRNAQYVAGLG | soluble
GLSAAQRQVVASTWKDIAGSDNGAGVGKECFTKFLSAHHDMAAVFGFSGASDPGVADLGAKVLAQIGVAVSHLGDEGKMVAEMKAVGVRHKGYGNKHIKAEYFEPLGASLLSAMEHRIGGKMNAAAKDAWAAAYADISGALISGLQS | soluble
GLVPRGSHMYAELSPGTKKVYTQVRYLDDYHWEIEGSTITGIHKKSNVKVVIDVAKNREEADSLAGKDVNGIHIVAIPDNGVFYIKNGSFVLTYRYLKATLADINDHIVWSGFKVVEDNGKLVQEDVYEYLGAALVNHIKNNALAGQDYIFWQFYKCEECGKYVDIENLEAHLREHGIKLHEKSEEHYEVFELNFREGKVFDKFGGEVPMDKFSSEAREFIKEVLS | soluble
GMAEAKSRVGRPSGDTQNRDKLILAARNLFIERPYAQVSIREIASLAGTDPGLIRYYFGSKEKLFSTMIHETAMPVLAQLHKARRETRQESPAALLQTYYSVMSKHPHFPRLMLRIAGLDQSLPENAEVTKAFYEVVNFENIAIFQRLKDKNLLKDDVDAHCAQLSFFAMMVFPFIVPENLLERVGIELTPDFLQLLAEQNTRLLQRGLMDVKDERDE | soluble
GMATLGANASLYSEQHRITYYECDRTGRATLTTLIDIAVLASEDQSDALGLTTEMVQSHGVGWVVTQYAIDITRMPRQDEVVTIAVRGSAYNPYFAYREFWIRDADGQQLAYITSIWVMMSQTTRRIVKILPELVAPYQSEVVKRIPRLPRPISFEATDTTITKPYHVRFFDIDPNRHVNNAHYFDWLVDTLPATFLLQHDLVHVDVRYENEVKYGQTVTAHANILPSEVADQVTTSHLIEVDDEKCCEVTIQWRTLPEPIQ | soluble
GMDKLNEYRTKVRQLLTKHLQYKPSYGDVEVEQIFDEEHDHYQIISVGWNNQHRIYGPIMHLDIKNNKIWIQQNTTEADIALELMEMGIDKQDIVIGFHTPKMRQLSGFAVE | soluble
GMEAKLSSIEIPVGQDELSGTLLTPTGMPGVLFVHGWGGSQHHSLVRAREAVGLGCICMTFDLRGHEGYASMRQSVTRAQNLDDIKAAYDQLASLPYVDAHSIAVVGLSYGGYLSALLTRERPVEWLALRSPALYKDAHWDQPKVSLNADPDLMDYRRRALAPGDNLALAACAQYKGDVLLVEAENDVIVPHPVMRNYADAFTNARSLTSRVIAGADHALSVKEHQQEYTRALIDWLTEMVVGRRIALAKEVVAARKQLLKEQQGDAVSLPGQGSREFRGDIRAVEKTSA | soluble
GMEMTKVTGKFDVKLTPENAYATGVGGVNLGRMALDKTFYGELEARSQGEMLSAMTAVKGSAGYVAIEQVVGKLCGRQGSFVLQHFGIMTDGQNRLHLEVVPHSGAGELTGLYGTMAISIENGQHFYEFSFCFEPASEVEG | soluble
